Measurements published in patent US7041806.
pKd: −log10 of the molar value.

How the values were obtained:
[1] = target: UNC5H-1 (rat homologue of UNC-5) (rat) (UniProt O08721); test: equilibrium binding, curves fitted to the Hill equation
[2] = target: UNC5H-2 (rat homologue of UNC-5) (rat) (UniProt O08722); test: as above

Chain of UniProt O08721 (O08721 26-898 limits assumed, form in doubt): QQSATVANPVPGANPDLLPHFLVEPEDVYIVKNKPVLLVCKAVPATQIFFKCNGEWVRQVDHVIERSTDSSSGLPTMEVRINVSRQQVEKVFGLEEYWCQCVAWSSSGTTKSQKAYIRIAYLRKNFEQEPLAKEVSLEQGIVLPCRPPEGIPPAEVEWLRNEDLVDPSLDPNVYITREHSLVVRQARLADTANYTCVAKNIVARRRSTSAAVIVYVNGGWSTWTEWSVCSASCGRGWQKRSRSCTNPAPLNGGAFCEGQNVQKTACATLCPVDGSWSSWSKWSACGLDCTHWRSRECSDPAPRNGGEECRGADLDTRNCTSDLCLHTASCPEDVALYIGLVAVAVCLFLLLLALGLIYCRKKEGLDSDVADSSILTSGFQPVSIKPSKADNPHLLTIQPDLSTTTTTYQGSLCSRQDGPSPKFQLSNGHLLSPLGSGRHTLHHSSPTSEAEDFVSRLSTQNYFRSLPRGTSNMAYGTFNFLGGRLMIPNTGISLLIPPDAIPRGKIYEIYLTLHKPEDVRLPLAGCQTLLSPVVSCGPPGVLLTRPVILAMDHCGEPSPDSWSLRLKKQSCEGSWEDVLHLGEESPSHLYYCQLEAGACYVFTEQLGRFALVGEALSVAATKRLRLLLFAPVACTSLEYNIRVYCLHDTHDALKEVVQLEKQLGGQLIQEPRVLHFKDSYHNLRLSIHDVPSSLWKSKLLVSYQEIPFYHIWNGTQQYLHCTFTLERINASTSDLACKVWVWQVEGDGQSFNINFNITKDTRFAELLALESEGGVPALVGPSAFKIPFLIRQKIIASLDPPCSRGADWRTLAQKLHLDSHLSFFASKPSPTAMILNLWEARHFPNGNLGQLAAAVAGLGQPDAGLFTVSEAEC

pKd [1]: 7.72
pKd [2]: 8.47
Substance: netrin(VIoV)-Fc (Fc fusion)
